B1: Guanyl-specific ribonuclease Sa, P05798 (parent)
chain: DVSGTVCLSALPPEATDTLNLIASDGPFPYSQDGVVFQNRESVLPTQSYGYYHEYTVITPGARTRGTRRIITGEATQEDYYTGDHYATFSLIDQTC
B2: Guanyl-specific ribonuclease T1, P00651 (parent)
chain: MMYSKLLTLTTLLLPTALALPSLVERACDYTCGSNCYSSSDVSTAQAAGYQLHEDGETVGSNSYPHKYNNYEGFDFSVSSPYYEWPILSSGDVYSGGSPGADRVVFNENNQLAGVITHTGASGNNFVECT

Variants of: B1
Settings: Kitasatospora aureofaciens; pH 2; Thermal; CD; MOPS 30 mM; transition: 2; reversible: Yes; structure 1RGG; whole UniProt chain shown

Variant | Tm [°C] | change of melting temperature, mutant - wild type (higher = more stable) [°C] | unfolding enthalpy (van 't Hoff) [kcal/mol]
N39D | 23.3 | -4.7 | 50.3

Same assay, conditions: Kitasatospora aureofaciens; pH 7; 48.4 °C; Thermal; CD; MOPS 30 mM; reversible: yes (>95%); structure 1RGG; whole UniProt chain shown

Variant | ddG of mutation (higher = less stable) [kcal/mol]
N39D | 1.5
N39A | 2.2
N39S | 2.3

Same assay, conditions: Kitasatospora aureofaciens; pH 7; Thermal; CD; MOPS 30 mM; reversible: yes (>95%); structure 1RGG; whole UniProt chain shown

Variant | Tm [°C] | change of melting temperature, mutant - wild type (higher = more stable) [°C] | unfolding enthalpy (van 't Hoff) [kcal/mol]
N39D | 43.2 | -5.2 | 83.5
N39A | 40.8 | -7.6 | 70.4
N39S | 40.4 | -8 | 73.5

Same assay, conditions: Kitasatospora aureofaciens; pH 7; Thermal; CD; MOPS 30 mM; transition: 2; reversible: Yes; structure 1RGG; whole UniProt chain shown

Variant | Tm [°C] | change of melting temperature, mutant - wild type (higher = more stable) [°C] | unfolding enthalpy (van 't Hoff) [kcal/mol]
N39D | 43.2 | -5.2 | 83.5
N39A | 40.8 | -7.6 | 70.4
N39S | 40.4 | -8 | 73.5

Variants of: B2
Settings: Aspergillus oryzae (strain ATCC 42149 / RIB 40); pH 7; 25 °C; Urea; CD; MOPS 30 mM; reversible: yes (>95%); structure 1RN1; whole UniProt chain shown

Variant | ddG of mutation (higher = less stable) [kcal/mol] | denaturant m value [kcal/mol/M] | denaturant midpoint (higher = more stable) [M] | unfolding free energy [kcal/mol]
N70A | 2 | 1.17 | 3.51 | 4.12
N70S | 1.9 | 1.22 | 3.6 | 4.39
N70D | 2 | 1.25 | 3.54 | 4.43

Same assay, conditions: Aspergillus oryzae (strain ATCC 42149 / RIB 40); pH 7; 25 °C; Urea; Fluorescence; MOPS 30 mM; transition: 2; reversible: Yes; structure 1RN1; whole UniProt chain shown

Variant | ddG of mutation (higher = less stable) [kcal/mol] | denaturant m value [kcal/mol/M] | denaturant midpoint (higher = more stable) [M] | unfolding free energy [kcal/mol]
N70A | 2 | 1.17 | 3.51 | 4.12
N70S | 1.9 | 1.22 | 3.6 | 4.39
N70D | 2 | 1.25 | 3.54 | 4.43

Same assay, conditions: Aspergillus oryzae (strain ATCC 42149 / RIB 40); pH 7; 50.8 °C; Thermal; CD; MOPS 30 mM; reversible: yes (>95%); structure 1RN1; whole UniProt chain shown

Variant | ddG of mutation (higher = less stable) [kcal/mol]
N70A | 1.6
N70S | 1.5
N70D | 1.6

Same assay, conditions: Aspergillus oryzae (strain ATCC 42149 / RIB 40); pH 7; Thermal; CD; MOPS 30 mM; reversible: yes (>95%); structure 1RN1; whole UniProt chain shown

Variant | Tm [°C] | change of melting temperature, mutant - wild type (higher = more stable) [°C] | unfolding enthalpy (van 't Hoff) [kcal/mol]
N70A | 45.6 | -5.2 | 86.8
N70S | 45.8 | -5 | 89.6
N70D | 45.3 | -5.5 | 84.2

Same assay, conditions: Aspergillus oryzae (strain ATCC 42149 / RIB 40); pH 7; Thermal; CD; MOPS 30 mM; transition: 2; reversible: Yes; structure 1RN1; whole UniProt chain shown

Variant | Tm [°C] | change of melting temperature, mutant - wild type (higher = more stable) [°C] | unfolding enthalpy (van 't Hoff) [kcal/mol]
N70A | 45.6 | -5.2 | 86.8
N70S | 45.8 | -5 | 89.6

Same assay, conditions: Aspergillus oryzae (strain ATCC 42149 / RIB 40); pH 2.7; 25 °C; Urea; CD; glycine 30 mM; reversible: yes (>95%); structure 1RN1; whole UniProt chain shown

Variant | ddG of mutation (higher = less stable) [kcal/mol] | denaturant m value [kcal/mol/M] | denaturant midpoint (higher = more stable) [M] | unfolding free energy [kcal/mol]
N70D | 0.5 | 1.66 | 3.45 | 5.71

Same assay, conditions: Aspergillus oryzae (strain ATCC 42149 / RIB 40); pH 2.7; 25 °C; Urea; Fluorescence; glycine 30 mM; transition: 2; reversible: Yes; structure 1RN1; whole UniProt chain shown

Variant | denaturant m value [kcal/mol/M] | denaturant midpoint (higher = more stable) [M] | unfolding free energy [kcal/mol]
N70D | 1.66 | 3.45 | 5.71
